Data taken from publication PMC5637921, “An engineered photoswitchable mammalian pyruvate kinase” (The Febs Journal, 2017).

Molecular target: the molecule itself
Test: SEC; preparative SEC after Ni affinity; HiLoad 16/600 Superdex 200 pg, 0.5 mL/min, 50 mM Tris/HCl pH 7.5, 10 mM MgCl2, 200 mM NaCl, 150 mM KCl, 5% glycerol, 0.5 mM TCEP

B1: mPKM2 internal LOV2 fusion at position D24 (PiL[D24]) (enzyme)
chain: not shown
notes: mouse pyruvate kinase M2 isoform (mPKM2), residues 1-24, amplified from pLHCX-flag-mPKM2; N-terminal part up to Asp24; Avena sativa phototropin 1 (NPH1-1) LOV2 domain, residues 404-540, amplified from plasmid pDS257 (Mid2(SS/TM)-GFP-LOVpep); G528A and N538E of the template were backmutated to wild-type LOV2; numbers count on phototropin 1 (NPH1-1, GenBank AAC05083.1); mouse pyruvate kinase M2 …
With B1 the “stoichiometry N” value was 4.
